# B1: Int5 attB (dsDNA)
# DNA 1: GAGCGCCGGATCAGGGAGTGGACGGCCTGGGAGCGCTACACGCTGTGGCTGCGGTCGGTGC
# DNA 2: GCACCGACCGCAGCCACAGCGTGTAGCGCTCCCAGGCCGTCCACTCCCTGATCCGGCGCTC
# B2: Int30 attP (dsDNA)
# DNA 1: ATAATAGTGTATATGGTAGAGAATTAAACCAGTTTAATACTCCACCATGTACACGCAGTGAG
# DNA 2: CTCACTGCGTGTACATGGTGGAGTATTAAACTGGTTTAATTCTCTACCATATACACTATTAT
# B3: Int23 attB (dsDNA)
# DNA 1: TATTCTAAGTAATGTAGTTTTACCACATCCACTAGGTCCGAGTAAACATAGAAATTCCCCT
# DNA 2: AGGGGAATTTCTATGTTTACTCGGACCTAGTGGATGTGGTAAAACTACATTACTTAGAATA
# B4: Int32 attP (dsDNA)
# DNA 1: CTATGTGGTGGTAATAGCGAGTAGGGGACTACTCGCTCCAGGTACATTAACACCATGGA
# DNA 2: TCCATGGTGTTAATGTACCTGGAGCGAGTAGTCCCCTACTCGCTATTACCACCACATAG
# B5: Int29 attB (dsDNA)
# DNA 1: TTTGTAGCCATTAGGCGCATTAGGTTGACGCCATTAAGCCCTAAAGCATCATTCGTCGAAAC
# DNA 2: GTTTCGACGAATGATGCTTTAGGGCTTAATGGCGTCAACCTAATGCGCCTAATGGCTACAAA
# B6: Int23 attP (dsDNA)
# DNA 1: TATATAATTATTTGGACTAACATATAGTATCCACTTGGCTATTATTAGTTAGTCCAAATAAATA
# DNA 2: TATTTATTTGGACTAACTAATAATAGCCAAGTGGATACTATATGTTAGTCCAAATAATTATATA
# B7: Int26 attB (dsDNA)
# DNA 1: AGAAATAGACCTTTCAACTGGACAAGGTGCTGATAAAACTATGCAGCAAGTCTTAAGTAAA
# DNA 2: TTTACTTAAGACTTGCTGCATAGTTTTATCAGCACCTTGTCCAGTTGAAAGGTCTATTTCT
# B8: Int4 attB (dsDNA)
# DNA 1: TTCCAAAGAGCGCCCAACGCGACCTGAAATTTGAATAAGACTGCTGCTTGTGTAAAGGCGATGATT
# DNA 2: AATCATCGCCTTTACACAAGCAGCAGTCTTATTCAAATTTCAGGTCGCGTTGGGCGCTCTTTGGAA
# B9: Int5 attP (dsDNA)
# DNA 1: CCCTAATACGCAAGTCGATAACTCTCCTGGGAGCGTTGACAACTTGCGCACCCTGATCTG
# DNA 2: CAGATCAGGGTGCGCAAGTTGTCAACGCTCCCAGGAGAGTTATCGACTTGCGTATTAGGG
# B10: Int32 attB (dsDNA)
# DNA 1: ATCGCGCAGAACGGTGCGGTGATCAGTGAGTACGCACCGGGCACGACACCGGCGAAGCATCG
# DNA 2: CGATGCTTCGCCGGTGTCGTGCCCGGTGCGTACTCACTGATCACCGCACCGTTCTGCGCGAT
# B11: Int30 attB (dsDNA)
# DNA 1: GTAATATGTTTGGATATGGGGAAGTGAATCAGTACAACCGCCACAGTACCCTCATGTCAGCC
# DNA 2: GGCTGACATGAGGGTACTGTGGCGGTTGTACTGATTCACTTCCCCATATCCAAACATATTAC
# B12: Int4 attP (dsDNA)
# DNA 1: CAAAAATTACAAAGTTTTCAACCCTTGATTTGAATTAGCGGTCAAATAATTTGTAATTCGTTT
# DNA 2: AAACGAATTACAAATTATTTGACCGCTAATTCAAATCAAGGGTTGAAAACTTTGTAATTTTTG
# B13: Int26 attP (dsDNA)
# DNA 1: AAATATAACCTGTGTATTGAAACAAGGTGCTGATAAAACCCTTTCATAAACACAAGTAAATA
# DNA 2: TATTTACTTGTGTTTATGAAAGGGTTTTATCAGCACCTTGTTTCAATACACAGGTTATATTT
# B14: Int29 attP (dsDNA)
# DNA 1: CGTCACCTTGTTGGCGTAATTAGATTTACTCCAACAGGGTGATGACAAAGCTAATGAATTTT
# DNA 2: AAAATTCATTAGCTTTGTCATCACCCTGTTGGAGTAAATCTAATTACGCCAACAAGGTGACG
# Experiments:
# Assay in all cases: cell_activity; attB x attP EGFP inversion reporter, HEK293FT
# [1] = molecular target: T1, Int5 (Streptomyces phage PhiK38-1); details: tags: C-terminal GS linker-SV40 NLS
# T1 chain: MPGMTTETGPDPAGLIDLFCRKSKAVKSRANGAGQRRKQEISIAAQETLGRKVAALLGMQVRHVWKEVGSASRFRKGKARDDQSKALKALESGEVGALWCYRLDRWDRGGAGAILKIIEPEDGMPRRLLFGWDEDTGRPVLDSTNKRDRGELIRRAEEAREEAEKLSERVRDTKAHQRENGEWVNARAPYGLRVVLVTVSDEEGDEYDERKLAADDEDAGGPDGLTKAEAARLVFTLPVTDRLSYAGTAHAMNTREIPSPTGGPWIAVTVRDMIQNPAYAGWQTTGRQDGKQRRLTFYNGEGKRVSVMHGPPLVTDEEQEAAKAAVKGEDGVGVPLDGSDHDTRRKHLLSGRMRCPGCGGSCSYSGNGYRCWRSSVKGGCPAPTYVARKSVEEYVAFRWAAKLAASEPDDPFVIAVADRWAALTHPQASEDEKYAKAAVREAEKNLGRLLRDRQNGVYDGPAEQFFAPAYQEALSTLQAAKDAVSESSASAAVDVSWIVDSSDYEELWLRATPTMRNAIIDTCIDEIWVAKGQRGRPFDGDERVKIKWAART
# [2] = molecular target: T2, Int30 (Bacillus cereus AH187); details: tags: C-terminal GS linker-SV40 NLS; chain copies: 4
# T2 chain: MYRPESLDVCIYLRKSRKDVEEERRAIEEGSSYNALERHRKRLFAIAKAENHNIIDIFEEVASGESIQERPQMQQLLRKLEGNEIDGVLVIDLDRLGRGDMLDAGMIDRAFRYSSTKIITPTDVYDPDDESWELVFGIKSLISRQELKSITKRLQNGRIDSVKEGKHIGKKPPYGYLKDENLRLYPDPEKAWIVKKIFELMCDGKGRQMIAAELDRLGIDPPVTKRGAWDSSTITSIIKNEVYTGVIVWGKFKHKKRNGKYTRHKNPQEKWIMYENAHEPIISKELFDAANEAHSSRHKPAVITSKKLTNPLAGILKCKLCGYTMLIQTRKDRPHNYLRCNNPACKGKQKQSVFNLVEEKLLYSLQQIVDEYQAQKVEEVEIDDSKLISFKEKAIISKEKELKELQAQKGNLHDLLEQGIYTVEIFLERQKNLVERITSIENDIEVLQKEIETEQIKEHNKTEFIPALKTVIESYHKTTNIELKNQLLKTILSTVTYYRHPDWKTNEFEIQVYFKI
# [3] = molecular target: T3, Int23 (Clostridium difficile 630); details: tags: C-terminal GS linker-SV40 NLS
# T3 chain: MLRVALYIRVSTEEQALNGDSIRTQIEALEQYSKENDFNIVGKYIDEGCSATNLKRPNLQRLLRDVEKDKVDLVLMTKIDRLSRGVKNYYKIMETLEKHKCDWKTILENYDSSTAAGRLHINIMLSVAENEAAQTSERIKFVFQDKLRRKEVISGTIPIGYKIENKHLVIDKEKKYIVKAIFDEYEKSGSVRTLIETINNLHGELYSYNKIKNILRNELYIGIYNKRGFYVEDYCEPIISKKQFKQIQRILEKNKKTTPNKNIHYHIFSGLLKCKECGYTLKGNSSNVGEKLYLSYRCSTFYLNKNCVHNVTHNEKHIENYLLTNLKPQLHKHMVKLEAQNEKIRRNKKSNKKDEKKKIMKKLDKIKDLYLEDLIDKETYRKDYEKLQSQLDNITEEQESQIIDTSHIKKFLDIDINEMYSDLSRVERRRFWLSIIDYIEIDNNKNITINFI
# [4] = molecular target: T4, Int32 (Rhodococcus jostii RHA1); details: tags: C-terminal GS linker-SV40 NLS; chain copies: 4
# T4 chain: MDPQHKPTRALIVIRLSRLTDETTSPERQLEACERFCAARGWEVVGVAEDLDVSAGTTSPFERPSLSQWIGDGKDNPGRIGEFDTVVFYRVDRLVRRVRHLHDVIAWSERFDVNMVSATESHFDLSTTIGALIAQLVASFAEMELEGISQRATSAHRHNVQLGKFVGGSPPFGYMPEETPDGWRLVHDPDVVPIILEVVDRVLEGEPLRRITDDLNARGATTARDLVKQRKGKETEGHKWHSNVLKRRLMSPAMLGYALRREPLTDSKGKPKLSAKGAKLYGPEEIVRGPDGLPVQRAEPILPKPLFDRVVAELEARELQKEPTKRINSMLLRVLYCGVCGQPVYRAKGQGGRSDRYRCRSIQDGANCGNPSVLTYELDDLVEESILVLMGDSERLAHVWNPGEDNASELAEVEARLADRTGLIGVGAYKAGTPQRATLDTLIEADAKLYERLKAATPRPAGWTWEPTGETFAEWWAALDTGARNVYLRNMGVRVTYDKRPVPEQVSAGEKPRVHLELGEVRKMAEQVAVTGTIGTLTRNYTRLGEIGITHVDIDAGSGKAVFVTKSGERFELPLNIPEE
# [5] = molecular target: T5, Int29 (Bacillus weihenstephanensis KBAB4); details: tags: C-terminal GS linker-SV40 NLS; chain copies: 4
# T5 chain: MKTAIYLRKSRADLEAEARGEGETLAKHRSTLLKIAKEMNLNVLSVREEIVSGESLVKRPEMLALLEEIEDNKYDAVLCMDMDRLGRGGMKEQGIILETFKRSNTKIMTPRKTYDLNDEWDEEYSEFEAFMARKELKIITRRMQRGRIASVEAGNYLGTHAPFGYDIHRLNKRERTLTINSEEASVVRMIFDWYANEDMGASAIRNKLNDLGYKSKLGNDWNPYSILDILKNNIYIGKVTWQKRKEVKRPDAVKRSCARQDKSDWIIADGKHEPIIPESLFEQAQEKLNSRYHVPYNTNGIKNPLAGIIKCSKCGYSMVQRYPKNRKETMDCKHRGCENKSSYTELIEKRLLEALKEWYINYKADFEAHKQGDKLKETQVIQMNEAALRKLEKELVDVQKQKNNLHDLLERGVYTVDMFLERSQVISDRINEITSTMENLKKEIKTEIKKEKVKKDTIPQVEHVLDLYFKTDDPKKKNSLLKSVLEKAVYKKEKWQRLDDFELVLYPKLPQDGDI
# [6] = molecular target: Int26 (Clostridium botulinum F str. Langeland); details: tags: C-terminal GS linker-SV40 NLS
# [7] = molecular target: T6, Int4 (Streptococcus equi subsp. equi 4047); details: tags: C-terminal GS linker-SV40 NLS
# T6 chain: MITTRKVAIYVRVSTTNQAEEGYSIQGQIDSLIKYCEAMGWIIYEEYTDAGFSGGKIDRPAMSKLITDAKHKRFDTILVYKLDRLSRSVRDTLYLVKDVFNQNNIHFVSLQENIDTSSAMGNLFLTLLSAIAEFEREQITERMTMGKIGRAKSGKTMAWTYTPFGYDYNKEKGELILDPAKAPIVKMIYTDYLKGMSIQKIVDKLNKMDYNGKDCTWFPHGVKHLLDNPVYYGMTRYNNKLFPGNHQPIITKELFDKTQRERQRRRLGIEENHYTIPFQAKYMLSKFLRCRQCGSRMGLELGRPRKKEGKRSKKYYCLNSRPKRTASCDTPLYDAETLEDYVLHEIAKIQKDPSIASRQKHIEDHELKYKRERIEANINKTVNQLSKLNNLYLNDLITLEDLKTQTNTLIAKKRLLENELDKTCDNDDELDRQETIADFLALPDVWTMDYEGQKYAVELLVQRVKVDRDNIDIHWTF
binder,measurement,setting,value
B1,binding signal,[1],0.152 fraction of Bxb1
B2,binding signal,[2],1.29 fraction of Bxb1
B3,binding signal,[3],0.201 fraction of Bxb1
B4,binding signal,[4],0.137 fraction of Bxb1
B5,binding signal,[5],2.92 fraction of Bxb1
B6,binding signal,[3],0.201 fraction of Bxb1
B7,binding signal,[6],0.204 fraction of Bxb1
B8,binding signal,[7],1.85 fraction of Bxb1
B9,binding signal,[1],0.152 fraction of Bxb1
B10,binding signal,[4],0.137 fraction of Bxb1
B11,binding signal,[2],1.29 fraction of Bxb1
B12,binding signal,[7],1.85 fraction of Bxb1
B13,binding signal,[6],0.204 fraction of Bxb1
B14,binding signal,[5],2.92 fraction of Bxb1
